Laboratory results as given in US5948825A, “Microemulsion preparation containing a slightly absorbable substance” (Institute for Advanced Skin Research Inc., priority 1993, dated 1999).

Tests used:
[1] = absorption by the rectum (through the mucous membrane); type: in vivo; details: rats; relative to subcutaneous injection (integrated blood concentration over time) = 100%
Method: Rats were starved from the day before experiment until there was little feces left in the abdomen. […] Immediately after the injection, the anus was bound with a rubber band to prevent the leakage of the microemulsion. Blood was sampled at specified time intervals and the concentration of the drug in the blood was determined.

[2] = administration into the nasal cavity, closure technique; type: in vivo; details: rats; relative to subcutaneous injection (integrated blood concentration over time) = 100%
From the text: Rats were anesthetized and medisected in the neck to expose the windpipe and esophagus. Part of the windpipe was incised and a polyethylene tube was inserted into the windpipe to secure the airway, followed by ligation. The nostril and the opening in the incisive caval on the oral cavity side were closed with an adhesive. Part of the esophagus was incised for insertion of a nutrition catheter until its end reached into the nasal cavity. The part of the esophagus into which the nutrition catheter was inserted was ligated. […] Blood was sampled at specified time intervals and the change in the concentration of the drug in the blood was determined over time.
Availability: Relative value with the availability upon subcutaneous

[3] = absorption by the alimentary tract (duodenum); type: in vivo, rats; details: route not given; relative to subcutaneous injection = 100%
Method: Rats were incised in the abdomen and a silicone rubber tube was passed through the alimentary tract from the stomach wall to the duodenum, followed by suturing of the stomach wall, peritoneum and skin through which the tube penetrated. […] As in (1), blood was sampled at specified time intervals and the concentration of the drug in the blood was determined.

Substance | Availability, rectum [1] | Availability, nasal cavity [2] [%] | availability values (macromolecular peptides such as erythropoietin) [3]
calcitonin: peptide drug of low absorbability through the mucous membrane | 22-23% | 50 | –
erythropoietin: macromolecular peptide drug | – | – | 2-3%
